Assay results reported in US20240124590A1 (ULTRAHUMAN EIGHT, published 2024).
Like-named read-outs stand apart in the source and are kept apart here. One block for each binder: values may come before it.

Experiments:
[1] = target: T1, human PD1 expressed on cells (human, UniProt Q15116 25-288); assay: cell-based or functional assay
[2] = target: T1, human PD1 expressed on cells; assay: flow cytometry, PD1 CHO-K1 cells
Protocol: (§1) Purified IgGs were tested in FACs for binding to human and cyno PD1 expressed on CHO-K1 stable cell lines and CHO-K1 wild-type cells. […] Binding of IgGs was detected with a mouse anti-human IgG conjugated to FITC. Results were analyzed by examining the Mean Fluorescence Intensity (MFI) of 10000 cells per sample in the BL-1 channel detector of a flow cytometer (Attune™ NxT Acoustic Focusing Cytometer, Invitrogen/ThermoFisher Scientific).
(§2) Antibodies to PD1 were analysed for concentration-dependent binding at the cell surface via flow cytometry. Initial analyses were performed on CHO cells stably-transfected with human or cyno PD1.

[3] = target: T2, cyno PD1 expressed on CHO-K1 cells (cynomolgus monkey, UniProt Q15116 25-288 (human entry)); assay: flow cytometry, PD1 CHO-K1 cells
T2 construct: also called cyno PD1+ CHO cells
T2 chain: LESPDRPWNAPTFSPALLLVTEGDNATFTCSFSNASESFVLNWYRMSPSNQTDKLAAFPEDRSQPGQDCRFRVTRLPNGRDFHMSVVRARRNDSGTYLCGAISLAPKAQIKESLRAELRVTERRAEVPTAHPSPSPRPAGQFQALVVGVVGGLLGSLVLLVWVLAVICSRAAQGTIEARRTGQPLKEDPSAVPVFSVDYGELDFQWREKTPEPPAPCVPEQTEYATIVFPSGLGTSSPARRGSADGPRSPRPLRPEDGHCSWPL
Protocol: as §1, §2

[4] = target: T3, cynomolgus monkey PD1 His tag (monomeric) (cynomolgus monkey, UniProt Q15116 25-170 (human entry), limits assumed); assay: SPR (Biacore); cyno KD against human KD
T3 construct: Soluble monomeric analyte; whole entry named; also called monomeric cyno PD1; not shown: His tag
T3 chain: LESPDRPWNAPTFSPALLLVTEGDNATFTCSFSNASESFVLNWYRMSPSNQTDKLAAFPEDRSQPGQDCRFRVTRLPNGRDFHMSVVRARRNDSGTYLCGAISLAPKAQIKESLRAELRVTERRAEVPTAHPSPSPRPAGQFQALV
Protocol: (§3) Affinity (KD) of purified IgGs was determined via SPR with antigen in-solution on a Biacore 3000 (GE). A mouse anti-human antibody (CH1 specific) was immobilized on a CM5 Sensor Chip to a level of 2000 RU in acetate buffer at pH 4.5 using amine coupling following the Wizard instructions for two channels. One channel was used for background signal correction. The standard running buffer HBS-EP pH 7.4 was used. Regeneration was performed with a single injection of 10 μl of 10 mM Glycine at pH 1.5 at 20 μl/minute. IgG samples were injected for 2 minutes at 50 nM at 30 μl/min followed by and off-rate of 60 seconds. […] The obtained sensorgrams were analysed using the Biacore 3000 evaluation (BIAevaluation) software. The KD was calculated by simultaneous fitting of the association and dissociation phases to a 1:1 Langmuir binding model.
(§4) Biacore analyses of binding affinity was performed for all IgGs to solution-phase, monomeric human and cyno PD1 proteins.

[5] = target: T4, human PD1 human Fc tagged recombinant protein (human, UniProt Q15116 25-170, limits assumed); assay: direct ELISA, IgG1null on coated PD1-Fc
T4 construct: also called huPD1-Fc; huPD-1-Fc; not shown: human Fc tag
Protocol: (§5) Binding and cross-reactivity of the lead panel to the recombinant proteins was initially assessed by binding ELISA. The human PD1 human Fc tagged recombinant protein and the cynomolgus monkey PD1 human Fc tagged recombinant protein were coated to the surface of MaxiSorp™ flat-bottom 96 well plate at 1 μg/ml. […] The Fabs were detected using mouse anti-c-myc antibody followed by donkey anti-mouse IgG conjugated to horseradish peroxidase. The IgGs were detected using the mouse anti-human IgG conjugated to horseradish peroxidase. Binding signals were visualized with 3,3′,5,5′-Tetrannethylbenzidine Substrate Solution (TMB) and the absorbance measured at 450 nm.
(§6) The purified IgGs described above were then tested for binding to human and cyno PD1-Fc in direct titration ELISA format. […] As the ELISA EC50 values for directly binding IgGs are strongly influenced by avidity, rather than true 1:1 binding affinity, we then proceeded to perform higher-sensitivity, solution-phase epitope competition and Biacore binding affinity determinations, as outlined below.

[6] = target: T5, cynomolgus monkey PD1 human Fc tagged recombinant protein (cynomolgus monkey, UniProt Q15116 25-170 (human entry), limits assumed); assay: direct ELISA, IgG1null on coated PD1-Fc
T5 construct: also called cyPD1-Fc; cyPD-1-Fc; not shown: human Fc tag
T5 chain: T3 chain
Protocol: as §5, §6

[7] = target: T4, human PD1 human Fc tagged recombinant …; assay: direct ELISA, IgG1null on coated PD1-Fc; remark: listed apart in the source
Protocol: as §5, §6

[8] = target: T5, cynomolgus monkey PD1 human Fc tagged …; assay: direct ELISA, IgG1null on coated PD1-Fc
Protocol: as §5, §6

[9] = target: T6, biotinylated human PD1-His/AviTag (human, UniProt Q15116 25-170, limits assumed, biotinylated); assay: Alphascreen competition vs IgG1-Mab005 (humanized)
T6 construct: Alphascreen antigen; whole entry named; also called biotinylated monomeric human PD1; not shown: His/AviTag
Protocol: The AlphaScreen assay (Perkin Elmer) was performed in a 25 μl final volume in 384-well white microtiter plates (Greiner). The reaction buffer contained 1×PBS pH 7.3 (Oxoid, Cat. nr. BRO014G) and 0.05% (v/v) Tween® 20 (Sigma, Cat. nr. P9416). Purified IgG samples were titrated in three fold serial dilutions starting at 500 nM final concentration and incubated with biotinylated human PD1-His/AviTag at 0.6 nM final concentration for 20 minutes at room temperature. […] Followed by addition of the Streptavidin Donor beads at 20 μg/ml (final concentration) and incubation for 30 minutes at room temperature. The emission of light was measured in the EnVision multilabel plate reader (Perkin Elmer) and analysed using the EnVision manager software. Values were reported as Counts Per Second (CPS) and corrected for crosstalk.

[10] = target: T7, human PD1 His tagged (monomeric) (human, UniProt Q15116 25-170, limits assumed); assay: SPR (Biacore), IgG captured, monomeric PD1-His analyte
T7 construct: Soluble monomeric analyte; whole entry named; also called monomeric human PD1; not shown: His tag
Protocol: as §3, §4

[11] = target: T3, cynomolgus monkey PD1 His tag …; assay: as above
Protocol: as §3, §4

[12] = target: T8, human PD1 protein (construct not stated) (human, UniProt Q15116 25-170, limits assumed); assay: direct ELISA
T8 construct: Coated protein of the off-target ELISA; whole entry named

[13] = target: T9, cyno PD1 protein (construct not stated) (cynomolgus monkey, UniProt Q15116 25-170 (human entry), limits assumed); assay: direct ELISA
T9 construct: may be two constructs; also called cyno PD1 in the Alphascreen screen
T9 chain: T3 chain

[14] = target: T10, recombinant ectodomain of human VEGFR2 (human, UniProt P35968 20-764); assay: direct ELISA
T10 construct: whole entry named

[15] = target: T11, recombinant ectodomain of rhesus VEGFR2 (rhesus); assay: direct ELISA
T11 construct: whole entry named
T11 chain: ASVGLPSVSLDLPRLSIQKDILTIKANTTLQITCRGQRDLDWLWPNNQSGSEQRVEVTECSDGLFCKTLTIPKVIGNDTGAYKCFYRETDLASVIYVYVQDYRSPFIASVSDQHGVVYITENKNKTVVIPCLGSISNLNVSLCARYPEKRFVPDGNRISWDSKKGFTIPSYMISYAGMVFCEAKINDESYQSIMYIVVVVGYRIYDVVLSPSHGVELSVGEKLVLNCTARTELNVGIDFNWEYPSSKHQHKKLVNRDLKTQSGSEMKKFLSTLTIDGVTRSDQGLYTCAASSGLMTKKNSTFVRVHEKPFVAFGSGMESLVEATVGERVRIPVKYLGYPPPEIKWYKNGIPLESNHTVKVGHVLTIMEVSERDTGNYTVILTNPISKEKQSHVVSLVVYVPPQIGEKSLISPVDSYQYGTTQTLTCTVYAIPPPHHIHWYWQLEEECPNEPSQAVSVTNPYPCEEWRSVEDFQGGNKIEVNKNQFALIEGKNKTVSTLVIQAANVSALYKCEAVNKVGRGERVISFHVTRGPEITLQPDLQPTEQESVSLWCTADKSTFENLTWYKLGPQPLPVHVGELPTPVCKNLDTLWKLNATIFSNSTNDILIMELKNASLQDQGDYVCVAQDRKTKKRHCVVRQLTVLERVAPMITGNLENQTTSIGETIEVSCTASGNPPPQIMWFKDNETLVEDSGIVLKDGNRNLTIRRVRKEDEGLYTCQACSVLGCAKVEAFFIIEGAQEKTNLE

[16] = target: T1, human PD1 expressed on cells; assay: cell microarray re-array, transfected HEK293
Protocol: (§7) Antibody binding was detected using AF647 fluorescent secondary anti-human IgG1 antibody. Primary hits (duplicate spots) were identified by analysing fluorescence (AF647 and ZsGreen1) on ImageQuant. Vectors encoding all hits were sequenced to confirm their correct identities. […] Slides were analysed as above. Flow cytometry confirmation screen: Expression vectors encoding ZsGreen1 only, or ZsGreen1 and PD1, FZDS, KDR or ULBP2, were transfected into human HEK293 cells. Each live transfectant was incubated with […] of each of the test antibodies and the Isotype control antibody. Cells were washed, and incubated with the same AF647 anti-human IgG Fc detection antibody as used in the cell microarray screens. Cells were again washed, and analysed by flow cytometry using an Accuri flow cytometer (BD). A 7AAD live/dead dye was used to exclude dead cells, and ZsGreen1-positive cells (i.e. transfected cells) were selected for analyses.

[17] = target: T12, human FZD5 (frizzled class receptor 5) on transfected HEK293 cells (human, UniProt Q13467 27-585); assay: cell microarray re-array, transfected HEK293
T12 construct: also called FZDS; FZ5
Protocol: as §7

[18] = target: T13, human KDR (VEGFR2) on cells (human, UniProt P35968 20-1356); assay: cell microarray re-array, transfected HEK293
T13 construct: Transfected HEK293 cells (arrays, flow cytometry) and human VEGFR2 reporter cells
Protocol: as §7

[19] = target: T14, human ULBP2 (UL16 binding protein 2) on transfected HEK293 cells (human, UniProt Q9BZM5 26-217); assay: cell microarray re-array, transfected HEK293
T14 sequence: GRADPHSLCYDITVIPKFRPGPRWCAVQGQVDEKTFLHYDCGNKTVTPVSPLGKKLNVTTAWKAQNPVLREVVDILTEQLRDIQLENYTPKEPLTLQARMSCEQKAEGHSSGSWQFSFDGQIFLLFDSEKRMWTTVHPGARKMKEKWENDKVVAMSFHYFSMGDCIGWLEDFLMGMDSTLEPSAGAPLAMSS
Protocol: as §7

[20] = target: T15, human monomeric VEGFR2-his protein (human, UniProt P35968 20-764); assay: SPR (Biacore), IgG captured, VEGFR2-his analyte
T15 construct: Soluble analyte; whole entry named; also called human VEGFR2-his; not shown: his tag
Protocol: as §3

[21] = target: T16, rhesus monomeric VEGFR2-his protein (rhesus); assay: SPR (Biacore), IgG captured, VEGFR2-his analyte
T16 construct: Soluble analyte; whole entry named; also called rhesus VEGFR2-his; not shown: his tag
T16 chain: T11 chain
Protocol: as §3

T1 sequence (Q15116 25-288 limits assumed): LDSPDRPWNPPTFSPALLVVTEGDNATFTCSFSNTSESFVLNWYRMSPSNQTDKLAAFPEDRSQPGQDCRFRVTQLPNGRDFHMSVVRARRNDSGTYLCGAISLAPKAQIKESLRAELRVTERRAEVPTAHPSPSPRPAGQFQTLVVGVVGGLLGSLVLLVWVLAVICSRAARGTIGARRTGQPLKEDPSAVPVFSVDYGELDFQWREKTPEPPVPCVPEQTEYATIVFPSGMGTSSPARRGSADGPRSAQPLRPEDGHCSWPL
T7 sequence (Q15116 25-170 limits assumed): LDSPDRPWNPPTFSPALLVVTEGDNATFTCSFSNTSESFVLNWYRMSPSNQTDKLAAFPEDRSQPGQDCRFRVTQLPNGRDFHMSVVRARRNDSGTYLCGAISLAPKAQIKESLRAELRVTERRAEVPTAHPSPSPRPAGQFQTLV
T4 sequence (Q15116 25-170 limits assumed): as above
T6 sequence (Q15116 25-170 limits assumed): as above
T8 sequence (Q15116 25-170 limits assumed): as above
T12 sequence (Q13467 27-585 limits assumed): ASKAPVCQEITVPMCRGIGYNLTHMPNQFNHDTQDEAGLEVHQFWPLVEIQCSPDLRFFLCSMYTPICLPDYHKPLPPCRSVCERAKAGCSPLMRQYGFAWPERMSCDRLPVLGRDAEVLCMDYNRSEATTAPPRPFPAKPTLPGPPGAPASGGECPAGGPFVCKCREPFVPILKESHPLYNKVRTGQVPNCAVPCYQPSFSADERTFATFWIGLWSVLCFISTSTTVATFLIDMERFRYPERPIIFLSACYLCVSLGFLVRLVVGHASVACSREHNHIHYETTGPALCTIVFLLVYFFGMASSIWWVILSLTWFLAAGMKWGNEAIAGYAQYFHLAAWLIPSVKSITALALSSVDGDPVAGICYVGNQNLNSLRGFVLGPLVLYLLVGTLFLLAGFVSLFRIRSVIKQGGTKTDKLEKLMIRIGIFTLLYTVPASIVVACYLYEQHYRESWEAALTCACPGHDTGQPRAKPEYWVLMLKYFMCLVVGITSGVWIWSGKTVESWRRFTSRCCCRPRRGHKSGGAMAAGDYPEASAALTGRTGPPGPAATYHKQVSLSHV

EC50 (ng/ml), IgG1null blockade of human PD1/PD-L1 [1]: 285 ng/mL | EC50 [2]: 2.32 nM | EC50 [3]: 6.53 nM | human/cyno affinity differential (fold) [4]: 8 fold | EC50 [5]: 0.114 nM | EC50 [6]: 0.132 nM | EC50 [7]: 0.137 nM | EC50 [8]: 0.152 nM | IC50 [9]: 2.14 nM | Kd [10]: 4 nM | koff [10]: 0.00047 s⁻¹ | kon [10]: 120000 M⁻¹ s⁻¹ | Kd [11]: 32 nM | koff [11]: 0.0028 s⁻¹ | kon [11]: 88000 M⁻¹ s⁻¹
B1: IgG1-Mab005 (humanized) (antibody, V domains shown)
VH: EVQLVESGGGLVQPGGSLRLSCAASGFTFSSYMMSWVRQAPGKGLEWVATISGGGANTYYPDSVKGRFTISRDNAKNSLYLQMNSLRAEDTAVYYCARQLYYFDYWGQGTTVTVSS
VL: DIQMTQSPSSLSASVGDRVTITCLASQTIGTWLTWYQQKPGKAPKLLIYTATSLADGVPSRFSGSGSGTDFTLTISSLQPEDFATYYCQQVYSIPWTFGGGTKVEIK
notes: tested as human IgG1null (IgG1 with L234A, L235A, G237A) with human Ckappa; also called Mab005-IgG1 (humanized); Mab005-IgG1 (hum)

binding result [12]: binds | binding result [13]: binds | binding result [14]: binds | binding result [15]: binds | binding result [16]: binds | binding result [17]: binds | binding result [18]: binds | binding result [19]: binds | binding result [20]: binds | binding result [21]: binds
B2: mVH/mVL Mab005-IgG1 (antibody, V domains shown)
VH: EVMLVESGGGLVKPGGSLKLSCAASGFTFSSYMMSWVRQTPEKRLEWVATISGGGANTYYPDSVKGRFTISRDNAKNTLYLQMSSLRSEDTALYYCARQLYYFDYWGQGTTLTVSS
VL: DIQMTQSPASQSASLGEGVTITCLASQTIGTWLTWYQQKPGKSPQLLIYTATSLADGVPSRFSGSGSGTKFSFKISSLQAEDFVTYYCQQVYSIPWTFGGGTKLEIK
notes: Murine PD1-mVH/PD1-mVL on human IgG1null + Ckappa; also called original murine hybridoma v-domains
